Measured values from IntAct's records for PubMed 17229891.

Target: 1433b_human YWHAB (UniProt P31946)
Chain of UniProt P31946 (P31946 whole entry): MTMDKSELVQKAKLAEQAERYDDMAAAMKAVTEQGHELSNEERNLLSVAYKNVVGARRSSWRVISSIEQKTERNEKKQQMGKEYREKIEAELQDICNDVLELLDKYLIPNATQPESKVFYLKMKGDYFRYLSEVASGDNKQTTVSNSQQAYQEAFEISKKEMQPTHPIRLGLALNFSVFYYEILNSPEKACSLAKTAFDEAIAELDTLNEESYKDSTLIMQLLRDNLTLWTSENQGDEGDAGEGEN

effect of a mutation on the interaction: decreasing interaction
Substance: Dual specificity tyrosine-phosphorylation-regulated kinase 1A (Homo sapiens) (from UniProt Q13627-2) S520A
